Data published in patent publication US20150011730A1 (UNIVERSITY OF SOUTH CAROLINA, published 2015).
Non-standard residues stand in square brackets, D forms with d. No end group written: not given here. *: point of attachment. Pyrazole N‑cap, 4‑chlorophenylpyrazole (R1 H, R2 Cl, R3 H, R4 CH3, W N, X N, Y C, Z C) = not defined here; X1 = 1‑(3,5-dichlorophenyl)‑5‑methyl‑1H‑1,2,4‑triazole‑3‑carbonyl, Cc1nc(C(=O)*)nn1-c1cc(Cl)cc(Cl)c1; Ala(2-furyl) = N[C@@H](Cc1ccco1)C(=O)O

Experiments:
[1] = target: CDK2/Cyclin A2, full-length recombinant, N-terminal GST tag on both proteins (UniProt P24941 1-298; P20248 1-432); assay: cell-based or functional assay
[2] = target: CDK4/Cyclin D1, full-length recombinant, N-terminal GST tag on both proteins (UniProt P11802 2-303; P24385 1-295); assay: cell-based or functional assay
[3] = target: T1, CDK4/cyclin D1 (as used in the binding assay) (UniProt P11802 1-303; P24385 1-295); assay: FP binding assay
T1 construct: kept apart from the GST-tagged kinase-assay complex m2; also called CDK4/D1

[4] = target: T2, CDK2/cyclin A (as used in the binding assay) (UniProt P24941 1-298; P20248 1-432); assay: FP binding assay
[5] = target: T1, CDK4/cyclin D1 (as used in the binding …); assay: FP binding assay; remark: listed apart in the source
CDK2/E = CDK2/E (UniProt P24941 1-298; P24864 1-410); assay: cell-based or functional assay
[6] = target: T2, CDK2/cyclin A (as used in the binding …); assay: binding assay

Chain of CDK4/Cyclin D1, full-length recombinant, N-terminal GST tag on both proteins (P11802 2-303, chain 1 of 2): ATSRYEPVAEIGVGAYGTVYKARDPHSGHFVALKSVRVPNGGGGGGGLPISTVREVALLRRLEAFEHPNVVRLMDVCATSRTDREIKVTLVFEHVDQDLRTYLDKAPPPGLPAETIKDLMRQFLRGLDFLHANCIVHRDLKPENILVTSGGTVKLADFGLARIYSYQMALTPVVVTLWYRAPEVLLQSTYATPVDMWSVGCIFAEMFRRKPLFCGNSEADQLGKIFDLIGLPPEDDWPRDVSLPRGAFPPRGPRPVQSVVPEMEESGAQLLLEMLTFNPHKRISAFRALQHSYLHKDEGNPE
Chain of CDK4/Cyclin D1, full-length recombinant, N-terminal GST tag on both proteins (P24385 whole entry, chain 2 of 2): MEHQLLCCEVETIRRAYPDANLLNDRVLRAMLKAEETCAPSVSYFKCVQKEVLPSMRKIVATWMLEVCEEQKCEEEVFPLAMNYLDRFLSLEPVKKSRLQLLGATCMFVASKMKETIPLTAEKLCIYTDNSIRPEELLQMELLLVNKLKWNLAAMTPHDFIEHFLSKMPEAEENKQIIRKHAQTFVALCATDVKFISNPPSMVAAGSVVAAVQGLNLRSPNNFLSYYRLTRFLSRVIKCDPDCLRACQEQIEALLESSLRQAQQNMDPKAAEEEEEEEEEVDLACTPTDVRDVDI

| IC50, kinase assay [1] | IC50, kinase assay [2] | IC50 [3] | IC50 [4] | fold less active relative to the triazole N capping group [5] | IC50, kinase assay (CDK2/E) | IC50 [6] | Binder |
| --- | --- | --- | --- | --- | --- | --- | --- |
| 20 µM | 90 µM | – | – | – | – | – | HAKRRLIA (HELM PEPTIDE1{H.A.K.R.R.L.I.[O=C([C@H](CC1CCCC1)N[*:1])[*:2]].[am]}$$$$V2.0; N-terminus assumed; SMILES CC[C@H](C)[C@H](NC(=O)[C@H](CC(C)C)NC(=O)[C@H](CCCNC(=N)N)NC(=O)[C@H](CCCNC(=N)N)NC(=O)[C@H](CCCCN)NC(=O)[C@H](C)NC(=O)[C@@H](N)Cc1c[nH]cn1)C(=O)N[C@@H](CC1CCCC1)C(N)=O) [HAKRRLIX5] |
| – | – | 49 µM | 33.7 µM | ≥ 4 fold | – | – | {Pyrazole N‑cap, 4‑chlorophenylpyrazole (R1 H, R2 Cl, R3 H, R4 CH3, W N, X N, Y C, Z C)}-RLIF (reading uncertain; also: cap structure given only by scaffold parameters, also called 4-chlorophenylpyrazole) [SCCP 5765 (Pyrazole N-cap ligated to RLIF)] |
| – | – | 11.3 µM | 11.5 µM | – | – | 25 µM | {Triazole N‑cap, 4‑chlorophenyl triazole (R1 H, R2 Cl, R3 H, R4 CH3, W N, X N, Y N, Z C)}-RLIF (also: cap structure given only by scaffold parameters, also called 4-chlorophenyl triazole; 4-chloro phenyl triazole) [SCCP 5774 (Triazole N-cap ligated to RLIF)] |

More lines, now with the values behind:

| Binder | IC50, kinase assay [1] | IC50, kinase assay [2] | IC50 [3] | IC50 [4] | fold less active relative to the triazole N capping group [5] | IC50, kinase assay (CDK2/E) | IC50 [6] |
| --- | --- | --- | --- | --- | --- | --- | --- |
| HAKRRLI[Ala(2-furyl)]-NH2 [HAKRRLIX1] | 6.1 µM | – | – | – | – | 1.3 µM | – |
| X1-RLIF (also called SCCP 5773; 3,5-dichlorophenyl triazole) [1-(3,5-dichlorophenyl)-5-methyl-1H-1,2,4-triazole-3-carbonyl-RLIF] | – | – | 27 µM | 4 µM | – | – | 12 µM |
